Assay results reported in patent US9957299B2, “Peptidomimetic macrocycles” (AILERON THERAPEUTICS, INC., priority 2010, dated 2018).
Numbered stars: 1 amine (or outer) side, 2 acyl side, 3 side chain; on linkers, the order of the positions; unused ones are H or OH. Bridge positions count the residues as written; N and C are the ends. Square brackets hold non-standard residues; d marks the D form. Peptide text beside a SMILES is read from it. Trp(6-Cl) = N[C@@H](Cc1c[nH]c2cc(Cl)ccc12)C(=O)O; X3 = C=CCCCC(CCCC=C)(N[*:1])C(=O)[*:2]; R8 = C=CCCCCCC[C@@](C)(N)C(=O)O; S8 = C=CCCCCCC[C@](C)(N)C(=O)O; S5 = C=CCCC[C@](C)(N)C(=O)O; Nle = CCCC[C@H](N)C(=O)O; Ac3c = NC1(C(=O)O)CC1; Aib = CC(C)(N)C(=O)O

Legend:
HDM2 = HDM2 (Homo sapiens, UniProt Q00987); experiment: FP Competition Blinding Assay | HDM2 IC50 (nM)
HDM2, sequence (Q00987 whole entry, looked up): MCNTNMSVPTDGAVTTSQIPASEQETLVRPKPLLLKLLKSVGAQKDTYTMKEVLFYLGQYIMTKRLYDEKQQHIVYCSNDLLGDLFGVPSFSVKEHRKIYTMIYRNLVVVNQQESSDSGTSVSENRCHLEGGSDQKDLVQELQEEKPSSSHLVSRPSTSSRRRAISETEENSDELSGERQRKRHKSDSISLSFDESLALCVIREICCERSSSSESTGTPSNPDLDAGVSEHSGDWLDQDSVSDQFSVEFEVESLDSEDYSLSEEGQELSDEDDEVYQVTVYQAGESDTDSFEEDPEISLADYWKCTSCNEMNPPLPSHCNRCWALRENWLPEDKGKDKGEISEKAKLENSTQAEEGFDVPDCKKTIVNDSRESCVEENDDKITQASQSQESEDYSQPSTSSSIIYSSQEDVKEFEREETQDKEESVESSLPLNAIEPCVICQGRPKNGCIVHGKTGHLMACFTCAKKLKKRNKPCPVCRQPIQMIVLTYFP

HDMx = HDMx (Homo sapiens, UniProt O15151); experiment: FP Competition Blinding Assay | HDMx IC50 (nM)
HDMx, sequence (O15151 whole entry, looked up): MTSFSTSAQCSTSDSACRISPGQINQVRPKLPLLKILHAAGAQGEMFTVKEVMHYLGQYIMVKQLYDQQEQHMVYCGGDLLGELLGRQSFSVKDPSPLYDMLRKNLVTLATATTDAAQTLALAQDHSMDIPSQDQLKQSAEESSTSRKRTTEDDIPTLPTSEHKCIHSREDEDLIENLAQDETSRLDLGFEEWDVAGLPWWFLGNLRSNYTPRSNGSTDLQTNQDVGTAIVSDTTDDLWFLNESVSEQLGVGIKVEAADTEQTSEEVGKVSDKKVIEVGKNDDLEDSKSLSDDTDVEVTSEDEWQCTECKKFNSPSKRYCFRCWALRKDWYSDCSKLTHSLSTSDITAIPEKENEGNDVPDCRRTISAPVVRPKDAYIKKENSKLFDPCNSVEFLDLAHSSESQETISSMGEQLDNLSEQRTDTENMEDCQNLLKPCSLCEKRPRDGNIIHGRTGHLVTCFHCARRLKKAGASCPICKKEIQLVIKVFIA

circular dichroism = conditions: aqueous, '0% TFE' (buffer not stated; general: 50 mM potassium phosphate pH 7 or water); pH ns; ns °C; 25-50 uM (general text)

Compound | helicity (circular dichroism) | also measured
CC(=O)N[C@@H](Cc1c[nH]c2ccccc12)C(=O)N[C@H](C(=O)N[C@@H](Cc1ccccc1)C(=O)N[C@]1(C)CCCCCCC=CCCC[C@@](C)(C(=O)N[C@@H](CO)C(N)=O)NC(=O)[C@H](CC(C)C)NC(=O)[C@H](CCC(N)=O)NC(=O)[C@H](C)NC(=O)[C@H](Cc2c[nH]c3ccccc23)NC(=O)[C@H](Cc2ccc(O)cc2)NC(=O)[C@H](Cc2c[nH]cn2)NC1=O)[C@@H](C)O [SP-256, Ac- W T F $r8 H Y W A Q L $ S -NH2] (Ac-WTF[R8]HYWAQL[S5]S-NH2; staple 4-11) | – | IC50 (HDM2): 185 nM
CC(=O)N[C@@H](Cc1ccccc1)C(=O)N[C@]1(C)CCCCCCC=CCCC[C@@](C)(C(=O)N[C@@H](C)C(N)=O)NC(=O)[C@H](CC(C)C)NC(=O)C2(CC2)NC(=O)[C@H](CCC(=O)O)NC(=O)[C@H](Cc2c[nH]c3cc(Cl)ccc23)NC(=O)[C@H](Cc2ccc(O)cc2)NC(=O)[C@H](C)NC1=O [SP-128, Ac- F $r8 A Y 6clW E Ac3c L $ A -NH2] (Ac-F[R8]AY[Trp(6-Cl)]E[Ac3c]L[S5]A-NH2; staple 2-9) | – | IC50 (HDMx): 967 nM
CC(=O)N[C@@H](CC(C)C)C(=O)N[C@H](C(=O)N[C@@H](Cc1ccccc1)C(=O)N[C@]1(C)CCCCCCC=CCCC[C@@](C)(C(=O)N[C@@H](CO)C(N)=O)NC(=O)[C@H](CC(C)C)NC(=O)[C@H](CCC(N)=O)NC(=O)[C@H](C)NC(=O)[C@H](Cc2c[nH]c3ccccc23)NC(=O)[C@H](Cc2ccc(O)cc2)NC(=O)[C@H](Cc2ccccc2)NC1=O)[C@@H](C)O [SP-267, Ac- L T F $r8 F Y W A Q L $ S -NH2] (Ac-LTF[R8]FYWAQL[S5]S-NH2; staple 4-11) | – | IC50 (HDMx): 318 nM
CC(=O)N[C@@H](CCC(N)=O)C(=O)N[C@@H](CO)C(=O)N[C@@H](CCC(N)=O)C(=O)N[C@@H](CCC(N)=O)C(=O)N[C@H](C(=O)N[C@@H](Cc1ccccc1)C(=O)N[C@]1(C)CCCCCCCCCCC[C@@](C)(C(=O)N[C@@H](CCC(N)=O)C(=O)N[C@@H](CC(N)=O)C(N)=O)NC(=O)[C@H](CC(C)C)NC(=O)[C@H](CC(C)C)NC(=O)[C@H](CCCNC(=N)N)NC(=O)[C@](C)(Cc2c[nH]c3cc(Cl)ccc23)NC(=O)[C@H](CC(C)C)NC(=O)[C@H](CC(N)=O)NC1=O)[C@@H](C)O | 62.4% | –
CC(=O)N[C@@H](CC(C)C)C(=O)N[C@H](C(=O)N[C@@H](Cc1ccccc1)C(=O)N[C@]1(C)CCCCCCC=CCCC[C@@](C)(C(=O)N[C@@H](CO)C(N)=O)NC(=O)[C@H](CC(C)C)NC(=O)[C@H](CCC(N)=O)NC(=O)[C@H](C)NC(=O)[C@H](Cc2c[nH]c3ccccc23)NC(=O)[C@H](Cc2ccc(O)cc2)NC(=O)[C@H](C(C)C)NC1=O)[C@@H](C)O [SP-266, Ac- L T F $r8 V Y W A Q L $ S -NH2] (Ac-LTF[R8]VYWAQL[S5]S-NH2; staple 4-11) | – | IC50 (HDM2): 66 nM
Ac-QTFEHWWSQLLS-NH2 | 21.6% | –
C=CCCCCCC[C@](C)(NC(=O)[C@H](CC(C)C)NC(=O)[C@H](CC(C)C)NC(=O)[C@H](CCCNC(=N)N)NC(=O)[C@H](Cc1c[nH]c2ccccc12)NC(=O)[C@H](CC(C)C)NC(=O)[C@H](CC(N)=O)NC(=O)C(CCCC=C)(CCCC=C)NC(=O)[C@H](Cc1ccccc1)NC(=O)[C@@H](NC(=O)[C@H](CCC(N)=O)NC(=O)[C@](C)(CCCC=C)NC(=O)[C@H](CO)NC(=O)[C@H](CCC(N)=O)NC(C)=O)[C@@H](C)O)C(=O)N[C@@H](CCC(N)=O)C(=O)N[C@@H](CC(N)=O)C(N)=O (Ac-QS[S5]QTF[X3]NLWRLL[S8]QN-NH2) | 99% | –
CCCC[C@@H]1NC(=O)[C@H](CCCNC(=N)N)NC(=O)[C@H](Cc2c[nH]c3ccccc23)NC(=O)[C@H](CC(C)C)NC(=O)[C@H](CC(N)=O)NC(=O)[C@](C)(NC(=O)[C@H](Cc2ccccc2)NC(=O)[C@@H](NC(=O)[C@H](CCC(N)=O)NC(=O)[C@H](CCC(N)=O)NC(=O)[C@H](CO)NC(=O)[C@H](CCC(N)=O)NC(C)=O)[C@@H](C)O)CCCCCCCCCCC[C@@](C)(C(=O)N[C@@H](CCC(N)=O)C(=O)N[C@@H](CC(N)=O)C(N)=O)NC(=O)[C@H](CC(C)C)NC1=O | 84.7% | –
CCCC[C@H](NC(C)=O)C(=O)N1CCC[C@H]1C(=O)N[C@@H](CCCNC(=N)N)C(=O)N[C@@H](Cc1ccccc1)C(=O)N[C@]1(C)CCCCCCC=CCCC[C@@](C)(C(=O)N[C@@H](CCC(N)=O)C(=O)N[C@@H](CC(N)=O)C(N)=O)NC(=O)[C@H](CC(C)C)NC(=O)[C@H](CC(C)C)NC(=O)[C@H](CCCNC(=N)N)NC(=O)[C@H](Cc2c[nH]c3ccccc23)NC(=O)[C@H](Cc2ccc(O)cc2)NC(=O)[C@H](CC(N)=O)NC1=O (Ac-[Nle]PRF[R8]NYWRLL[S5]QN-NH2; staple 5-12) | 62.6% | –
Ac-MPRFMDYWEGLN-NH2 | 7.5% | –
CC(=O)N[C@@H](CCC(N)=O)C(=O)N[C@@H](CO)C(=O)N[C@@]1(C)CCCCCCCCC2(CCCCCCCCCCC[C@@](C)(C(=O)N[C@@H](CCC(N)=O)C(=O)N[C@@H](CC(N)=O)C(N)=O)NC(=O)[C@H](CC(C)C)NC(=O)[C@H](CC(C)C)NC(=O)[C@H](CCCNC(=N)N)NC(=O)[C@H](Cc3c[nH]c4ccccc34)NC(=O)[C@H](CC(C)C)NC(=O)[C@H](CC(N)=O)NC2=O)NC(=O)[C@H](Cc2ccccc2)NC(=O)[C@H]([C@@H](C)O)NC(=O)[C@H](CCC(N)=O)NC1=O (some centres unmarked) | 96% | –
CC(=O)N[C@@H](CC(C)C)C(=O)N[C@H](C(=O)N[C@@H](Cc1ccccc1)C(=O)N[C@]1(C)CCCCCCC=CCCC[C@@](C)(C(=O)N[C@@H](CO)C(N)=O)NC(=O)[C@H](CC(C)C)NC(=O)[C@H](CCC(N)=O)NC(=O)[C@H](CO)NC(=O)[C@H](Cc2c[nH]c3ccccc23)NC(=O)[C@H](Cc2ccc(O)cc2)NC(=O)[C@H](C)NC1=O)[C@@H](C)O [SP-360, Ac- L T F $r8 A Y W S Q L $ S -NH2] (Ac-LTF[R8]AYWSQL[S5]S-NH2; staple 4-11) | – | IC50 (HDM2): 90 nM
CC(=O)N[C@@H](CC(C)C)C(=O)N[C@H](C(=O)N[C@@H](Cc1ccccc1)C(=O)N[C@]1(C)CCCCCCC=CCCC[C@@](C)(C(=O)N[C@@H](CO)C(N)=O)NC(=O)[C@H](CC(C)C)NC(=O)[C@H](CCC(N)=O)NC(=O)[C@H](C)NC(=O)[C@H](Cc2c[nH]c3ccccc23)NC(=O)[C@H](Cc2ccc(O)cc2)NC(=O)[C@H](CCC(=O)O)NC1=O)[C@@H](C)O [SP-512, Ac- L T F $r8 E Y W A Q F $ S -NH2] (Ac-LTF[R8]EYWAQL[S5]S-NH2; staple 4-11) | – | IC50 (HDM2): 16.2 nM
CC(=O)N[C@@H](CCC(N)=O)C(=O)N[C@H](C(=O)N[C@@H](Cc1ccccc1)C(=O)N[C@]1(C)CCCCCCC=CCCC[C@@](C)(C(=O)N[C@@H](CO)C(N)=O)NC(=O)[C@H](CC(C)C)NC(=O)[C@H](CCC(N)=O)NC(=O)[C@H](CO)NC(=O)[C@H](Cc2c[nH]c3ccccc23)NC(=O)[C@H](Cc2c[nH]c3ccccc23)NC(=O)[C@H](Cc2c[nH]cn2)NC1=O)[C@@H](C)O (Ac-QTF[R8]HWWSQL[S5]S-NH2; staple 4-11) | 21.6% | –
C=CCCCCCC[C@@](C)(NC(=O)[C@H](Cc1ccccc1)NC(=O)[C@@H](NC(=O)[C@H](CCC(N)=O)NC(=O)[C@H](CCC(N)=O)NC(=O)[C@H](CO)NC(=O)[C@H](CCC(N)=O)NC(C)=O)[C@@H](C)O)C(=O)N[C@@H](CC(N)=O)C(=O)N[C@@H](CC(C)C)C(=O)N[C@@H](Cc1c[nH]c2ccccc12)C(=O)N[C@@H](CCCNC(=N)N)C(=O)N[C@@H](CC(C)C)C(=O)N[C@@H](CC(C)C)C(=O)N[C@@](C)(CCCC=C)C(=O)N[C@@H](CCC(N)=O)C(=O)N[C@@H](CC(N)=O)C(N)=O | 55% | –
CC(=O)N[C@@H](CC(C)C)C(=O)N[C@H](C(=O)N[C@@H](Cc1ccccc1)C(=O)N[C@]1(C)CCCCCCCCCCC[C@@](C)(C(=O)N[C@@H](CO)C(=O)N[C@@H](C)C(N)=O)NC(=O)[C@H](CC(C)C)NC(=O)[C@H](CCC(N)=O)NC(=O)[C@H](C)NC(=O)[C@H](Cc2c[nH]c3ccccc23)NC(=O)[C@H](Cc2ccc(O)cc2)NC(=O)[C@H](Cc2c[nH]cn2)NC1=O)[C@@H](C)O | 78.4% | –
CC(=O)N[C@@H](CCC(N)=O)C(=O)N[C@@H](CO)C(=O)N[C@@H](CCC(N)=O)C(=O)N[C@@H](CCC(N)=O)C(=O)N[C@H](C(=O)N[C@@H](Cc1ccccc1)C(=O)N[C@]1(C)CCCCCCCCCCC[C@@](C)(C(=O)N[C@@H](CCC(N)=O)C(=O)N[C@@H](CC(N)=O)C(N)=O)NC(=O)[C@H](CC(C)C)NC(=O)[C@H](CC(C)C)NC(=O)[C@H](CCCNC(=N)N)NC(=O)[C@H](Cc2c[nH]c3cc(Cl)ccc23)NC(=O)[C@H](CC(C)C)NC(=O)[C@H](CC(N)=O)NC1=O)[C@@H](C)O | 92.4% | –
CC(=O)N[C@@H](C)C(=O)N[C@@H](C)C(=O)N[C@@H](C)C(=O)N[C@@H](CCCNC(=N)N)C(=O)N[C@@H](C)C(=O)N[C@@H](C)C(=O)N[C@]1(C)CCCCCCC=CCCC[C@@](C)(C(=O)N[C@@H](C)C(=O)N[C@@H](C)C(N)=O)NC(=O)[C@H](C)NC(=O)[C@H](C)NC(=O)[C@H](CCCNC(=N)N)NC(=O)[C@H](C)NC(=O)[C@H](C)NC(=O)[C@H](C)NC1=O (Ac-AAARAA[R8]AAARAA[S5]AA-NH2; staple 7-14) | 131% | –
CC(=O)N[C@@H](CC(C)C)C(=O)N[C@H](C(=O)N[C@@H](Cc1ccccc1)C(=O)N[C@]1(C)CCCCCCC=CCCC[C@@](C)(C(=O)N[C@@H](C)C(N)=O)NC(=O)[C@H](CC(C)C)NC(=O)[C@H](CCC(N)=O)NC(=O)[C@H](C)NC(=O)[C@H](Cc2c[nH]c3ccccc23)NC(=O)[C@H](Cc2ccc(O)cc2)NC(=O)[C@H](C)NC1=O)[C@@H](C)O [SP-194, Ac- L T F $r8 A Y W A Q L $ A -NH2] (Ac-LTF[R8]AYWAQL[S5]A-NH2; staple 4-11) | – | IC50 (HDMx): 463 nM
CSCC[C@H](NC(=O)[C@H](Cc1ccccc1)NC(C)=O)C(=O)NC(C)(C)C(=O)N[C@@H](Cc1ccc(O)cc1)C(=O)N[C@@H](Cc1c[nH]c2cc(Cl)ccc12)C(=O)N[C@@H](CCC(=O)O)C(=O)NC1(C(=O)N[C@@H](CC(C)C)C(N)=O)CC1 (Ac-FM[Aib]Y[Trp(6-Cl)]E[Ac3c]L-NH2) | -3.6% | –
